Experimental findings from article PMC5368172 are described below.

The target in test [1] is SCM on the surface of S. canis strain G361 (Streptococcus canis (endogenous in strain G361)). Kind of test: radioligand binding; iodinated IgG or iodinated plasminogen incubated with whole S. canis bacteria, gamma-counting, percent bound; inhibition with 1.0 μM non-labeled IgG or plasminogen.
Test [2] deals with HRP-conjugated human IgG (human). Kind of test: ELISA; competitive: wells coated with 5 μg full length SCM; HRP-conjugated human IgG (1:200) pre-incubated 15 min with 10 μg SCM, FOG or KO173225, then added for 2 h.

For human plasminogen (natural protein), in test [1], the percent bound was determined as 37.1% and the percent bound with excess non-radiolabeled plasminogen turned out to be 23.3%.

“recombinant SCM, the M protein of Streptococcus canis (natural protein)” showed an IgG binding to immobilized SCM left after pre-incubation of IgG with 10 μg SCM, percent in test [2] of 20%.
